Results from patent US20240025955.

Tested on: MMP3 resistant rAgrin (SEQ ID NO: 19)

With MMP3 the MMP3 degradation was “is resistant to MMP3 degradation” and the “degradation of Agrin in the presence of increasing amounts of MMP3 for 24 hours” value was “mutation of the MMP-3 cleavage site reduces degradation of Agrin (polypeptide defined by SEQ ID NO: 19)”.
